Four molecules from PMC7755911 (2020) can be followed below.

Residue numbers refer to the chain shown, from its start.

Test [1] deals with T1, Biotinylated SARS-CoV-2 S protein RBD with a C-terminal AviTag (SARS-CoV-2, UniProt P0DTC2 319-541). In words: BLI.
Test [2] concerns the target T1, Biotinylated SARS-CoV-2 S protein RBD …. The experiment in a line: BLI. The source holds these as a separate data set.

B1: NIH-CoVnb-113 (VHH)
VHH: DVQLQESGGGLVQPGGSLRLSCAASGLTLDYYAIGWFRQAPGKEREGVSCISSSDGSTYYADSVKGRFTTSRDNAKNTVYLQMNSLKPEDTAVYYCAAVPSTYYSGTYYYTCHPGGMDYWGKGTLVTVSS
B1 yielded a koff in test [1] of 0.000804 s⁻¹. The same molecule showed a Kd in test [2] of 8.19 nM.

B2: NIH-CoVnb-109 (VHH)
VHH: B1 VHH with P14S, L27F, S52T, S53N, A98S, V99F, T107S, L125Q
B2 displayed a koff in test [1] of 0.00188 s⁻¹. Moreover, the Kd in test [2] is 58.5 nM.

B3: NIH-CoVnb-108 (VHH)
VHH: B1 VHH with L27F, S53N, D55G, T107S, L125Q
Take B3: in test [1], the koff stood at 0.00109 s⁻¹. In test [2], binding was put at a Kd of 26.6 nM.

B4: NIH-CoVnb-103 (VHH)
VHH: DVQLQESGGGLVQPGGSLRLSCAASGLTLDYYTIGWFRQAPGKEREGVSCISSSDDSTYYADSVKGRFTISRDNAKNTVYLQMNSLKPEDTAVYYCATAPGTYYKGSYYPMCHYYGMDYWGKGTQVTVSS
The molecule B4 registered a koff in test [1] of 0.00286 s⁻¹. The molecule also came in with a Kd in test [2] of 9.43 nM.
